Measurements published in publication PMC3514331, “Structure-function analysis of Methanobacterium thermoautotrophicum RNA ligase – engineering a thermostable ATP independent enzyme” (BMC Molecular Biology, 2012).
Substitutions are numbered along the chain they refer to. Names may count otherwise.

Substrate: Nc1ncnc2c1ncn2[C@@H]1O[C@H](COP(=O)(O)OP(=O)(O)OP(=O)(O)O)[C@@H](O)[C@H]1O
Test: purified protein
Type: biochemical, Methanothermobacter thermautotrophicus
Conditions: 10 mM Mg2+, 30 min, covalent enzyme-AMP formation, labelled compound

B1: MthRnl (Methanobacterium thermoautotrophicum RNA ligase) (Methanothermobacter thermautotrophicus str. Delta H) (protein)
chain: MNSMNSDIPFDLIQERTGVPSSRLKVAFARGSLRLLESAGMQALLFKKPLGDLEAGTVIYLGDETEVIRGFPKIRRTLLLSPTIQEHFRDRVAVEEKMNGYNVRIACLSSGETVALTRGGHVCPFTTRKAQELLDLSEFFREHPDLVICGEMIGRDNPYVSQDYPEVGPLGFRVFDLREKNTNRPLPVEERRALLDSYGLPNVRLFGVYPIEEAASEVADIIRALGMAGREGVVMKDPSMEVPPLKYTSSQAHARELAYAFSYPFDFGRPFFFSRVIREGFQAYELDESDDETRERARRLGEAIIYPMLERIKSISAGEAAYEDTVIDVEDREAAEEFIRHLVRLGVSATLADYRDGRATIRRFYQSTTDRINNYLKGGLY
notes: full-length codon-optimized ORF, N-terminal His10 tag (pET16b), expressed in E. coli, tag cleavage not mentioned; homodimer, about 46 kDa per monomer (10 pmol = 460 ng)
10 mM bis-Tris propane pH 7.0, 65°C
  Km: 0.9 µM

B2: MthRnl (Methanobacterium thermoautotrophicum RNA ligase) (Methanothermobacter thermautotrophicus str. Delta H; K246A) (protein)
chain: B1 chain with K246A
notes: as for B1
10 mM bis-Tris propane pH 8.5, 65°C
  Km: 60 µM
